In patent publication US20150329642A1 (Genmab, published 2015):

How the values were obtained:
[1] = target: T1, cMetECDHis (human, UniProt P08581 25-932, limits assumed, biotinylated in the cross-block ELISA of Example 17); experiment: cross-block ELISA; competitor G11-HZ
T1 construct: Expressed in HEK-293F cells; also called soluble cMetECDHis; biotinylated cMetECDHis
Protocol: First, the optimal coating concentrations of the tested anti-c-Met antibodies and the optimal cMetECDHis concentration were determined. Therefore, ELISA wells were coated overnight at 4° C. with anti-c-Met HuMabs serially diluted in PBS (8 μg/mL in 2-fold dilutions). Next, the ELISA wells were washed with PBST (PBS supplemented with 0.05% Tween-20 [Sigma-Aldrich, Zwijndrecht, The Netherlands]) and blocked for one hour at room temperature (RT) with PBSTC (PBST supplemented 2% [v/v] chicken serum [Gibco, Paisley, Scotland]). Subsequently, the ELISA wells were washed with PBST and incubated for one hour at RT with biotinylated cMetECDHis serially diluted in PBSTC (1 μg/mL in 2-fold dilutions). Unbound biotinylated cMetECDHis was washed away with PBST, and bound biotinylated cMetECDHis was incubated for one hour at RT with 0.1 μg/mL Streptavidin-poly-HRP (Sanquin, Amsterdam, The Netherlands) diluted in PBST.
ELISA wells were coated with anti-c-Met antibody at a sub-optimal dose as described above. After blocking of the ELISA wells, they were incubated with the predetermined concentration of biotinylated cMetECDHis in the presence of an excess of anti-c-Met antibody. The reaction was developed as described above. Residual binding was expressed as a percentage relative to the binding observed in the absence of competitor antibody.

[2] = target: T2, recombinant human c-Met extracellular domain (R&D systems) (human, UniProt P08581 25-932); experiment: competition ELISA on coated recombinant c-Met extracellular domain; blocked ligand Europium-conjugated HGF; column headed EC50 on the sheet, called IC50 in paragraph 270; upper panel
T2 construct: extracellular domain; Bought reagent; also called coated extracellular domain of c-Met; recombinant c-Met
Protocol: (§1) ELISA wells were coated overnight at 4° C. with 0.5 μg/mL recombinant human c-Met extracellular domain (R&D systems, Minneapolis, USA) diluted in PBS. Next, the ELISA wells were washed with PBST (PBS supplemented with 0.05% Tween-20 [Sigma-Aldrich, Zwijndrecht, The Netherlands]) and blocked for one hour at room temperature (RT) with PBST supplemented with 2% (v/v) chicken serum (Gibco, Paisley, Scotland). […] Mean fluorescence intensity at 615 nm was measured using the EnVision 2101 Multilabel reader (PerkinElmer) applying the following settings: Lance/Delfia dual mirror, emission filter 615, excitation filter 340 nm, delay time 400 μs, window 400 μs, 100 flashes, 2000 μs per cycle and bidirectional row-by-row reading. To determine IC₅₀ values, the binding curves were analyzed with non-linear regression (sigmoidal dose-response with variable slope, top-values constrained to a shared value for all data-sets) using GraphPad Prism V4.03 software (GraphPad Software, San Diego, Calif., USA).
(§2) FIG. 5 depicts representative examples of HGF binding inhibition curves of anti-c-Met antibodies for binding to the extracellular domain of recombinant human c-Met. 5D5 was used as positive control antibody. All anti-c-Met antibodies in the experiment shown were able to compete with Europium^{3±}-conjugated HGF for binding to recombinant c-Met. […] Without adding Europium³⁺-conjugated HGF, roughly ˜600 relative fluorescent units (RFU) were detected, indicating the signal when maximal inhibition is accomplished. When binding of Europium³⁺-conjugated HGF was not inhibited, approximately ˜66,000 RFU were detected.

[3] = target: T3, cMetSEMA-567His8 (human, UniProt P08581 25-567, limits assumed); experiment: TR-FRET; displacement of AlexaFluor-647-HGF from cMetSEMA-567His8
T3 construct: In the TR-FRET assay detected by anti-6xhis Europium3+; also called cMetSEMAHis; SEMA domain of c-Met; not shown: C-terminal His tag; the text says His9, the construct name says His8
Protocol: Therefore, the interaction of anti-c-Met antibodies with the SEMA domain of the c-Met receptor was studied using TR-FRET technology. […] The mean fluorescent intensity at 665 nm was measured on the EnVision 2101 Multilabel reader (PerkinElmer).
A 4-fold serial dilution of unlabeled anti-c-Met antibody ranging from 0.49-8000 ng/mL was tested. After overnight incubation at 4° C. in the dark, mean fluorescence intensity at 665 nm was measured using the EnVision 2101 Multilabel reader applying the following settings: Lance/Delfia dual mirror, emission filter 615-665 nm, excitation filter 320 nm, delay time 60 μs, window 100 μs, 100 flashes, 2000 μs per cycle and bidirectional row-by-row reading. To determine IC₅₀ values, the binding curves were analyzed with non-linear regression (sigmoidal dose-response with variable slope) using GraphPad Prism V4.03 software (GraphPad Software, San Diego, Calif., USA).

[4] = target: T2, recombinant human c-Met extracellular …; experiment: competition ELISA, residual Europium-HGF signal at 615 nm at the lower plateau of the fit; sheet prints no competing mAb ~66000, no HGF-Europium ~600; upper panel
Protocol: as §1, §2

[5] = target: T4, human c-Met, membrane-bound on cells (human, UniProt P08581 25-1390); experiment: flow cytometry on A431 cells (PE goat anti-human IgG); second panel
T4 construct: whole, on cells; A431 cells carry on average 30,000 copies of c-Met per cell (Qifi); also called c-Met expressed on A431 cells; c-Met on A549 cells
Protocol: The binding of anti-c-Met antibodies and monovalent forms thereof (also termed “UniBody molecules” herein, see Example 5) to A431 cells expressing membrane-bound c-Met (purchased at ATCC, CRL-1555) was tested using flow cytometry (FACS Canto II, BD Biosciences). […] Binding of anti-c-Met antibodies and UniBody molecules was detected using a Phycoerythrin-conjugated goat-anti-human IgG antibody (Jackson). IgG1-5D5 was used as positive control antibody, and HuMab-KLH was used as isotype control antibody. EC₅₀ values were determined by means of non-linear regression (sigmoidal dose-response with variable slope) using GraphPad Prism V4.03 software (GraphPad Software, San Diego, Calif., USA).
Also maximum binding levels were unchanged between IgG1's and UniBody molecules. For antibodies 005, 006, 008, 035, 045 and 058, on the other hand, a more than 2-fold […] as well as a decrease in maximum binding level was observed when comparing IgG1 with their UniBody counterpart. This was most likely due to the […] (Kd) of these antibodies (see Example 14).

Binder	residual binding, % of no competitor [1] [%]	IC50 [2] [µg/mL]	% inhibition [3] [%]	IC50 [3] [µg/mL]	Bottom [4] [RFU]	EC50 [5] [nM]
anti-c-Met HuMab 045 (IgG1) (antibody, V domains shown, also called TH1016-045; PC1016-045) VH: EVQLLESGGGLVQPGGSLRLSCAASGFTFSSYAMSWVRQAPGKGLEWVSVISGSGGITYYADSVKGRFTISRDNSKNTLYLQMNSLRAEDTAVYYCARDRGWGSDYWGQGTLVTVSS VL: EIVLTQSPATLSLSPGERATLSCRASQSVSSYLAWYQQKPGQAPRLLIYDASNRATGIPARFSGSGSGTDFTLTISSLEPEDFAVYYCQQRSNWPFTFGPGTKVDIK	99.3	0.0165	92	0.17	12600	
anti-c-Met HuMab 008 (IgG1) (antibody, V domains shown, also called TH1016-008; PC1016-008) VH: EVQLVQSGAEVKKPGESLKISCKGSGYSFTSYWIGWVRQMPGKGLEWMGIIYPGDSETRYSPSFQGQVTISADKSISTAYLQWSSLKASDTAMYYCARQEITGEFDYWGQGTLVTVSS VL: AIQLTQSPSSLSASVGDRVTITCRASQGISSALAWYQQKPGKAPKLLIYDASSLESGVPSRFSGSGSGTDFTLTISSLQPEDFATYYCQQFNSYPRTFGQGTKVEIK	2.7	0.00788			30100	0.554
anti-c-Met HuMab 035 (IgG1) (antibody, V domains shown, also called P1016-035; TH1016-035-D09) VH: EVQLVQSGAEVKKPGESLKISCKGSGYSFTSYWIGWVRQMPGKGLEWMGIIYPGDSDTRYSPSFQGQVTISADKSISTAYLQWNSLKASDTAMYYCARQEITGEFDYWGQGTLVTVSS VL: AIQLTQSPSSLSASVGDRVTITCRASQGISSALAWYQQKPGKAPKLLIYDASSLESGVPSRFSGSGSGTDFTLTISSLQPEDFATYYCQQFNSYPMYTFGQGTKLEIK	7.8	0.0348			23300	
anti-c-Met HuMab 005 (IgG1) (antibody, V domains shown, also called TH1016-005; PC1016-005) VH: QVQLVQSGAEVKKPGSSVKVSCKASGGTFSSYGFGWVRQAPGQGLEWMGRISPILGIANYAQMFQGRVTITADKSTSTAYMELSSLRSEDTAVYYCARDVGYDWPDTFDIWGQGTMVIVSS VL: DIQMTQSPSSLSASVGDRVTITCRASQGISSWLAWYQQKPEKAPKSLIYAASSLQSGVPSRFSGGGSGTDFTLTISSLQPEDFATYYCQQYNSFPPTFGQGTKVEIK	76.8	0.0362	92	0.16	6940	1.56
anti-c-Met HuMab 098 (IgG1) (antibody, V domains shown, also called TH1016-098; PC1016-098) VH: QVQLVQSGAEVKKPGASVKVSCKASGYTFTNFGISWVRQAPGQGLEWMGWISAFNGHTDYSQKVQGRVTMTTDTSTSTAYMELRSLRSDDTAVFYCARSHYYGSGSPFDYWGQGTLVTVSS VL: DIQMTQSPSSLSASVGDRVTITCRASQGISNWLAWYQQKPEKAPKSLIYAASSLQSGVPSRFSGSGSGTDFTLTISSLQPEDFATYYCHQYKSYPWTFGQGTKVEIK	99.6		98	0.55		
anti-c-Met HuMab 101 (IgG1) (antibody, V domains shown) VH: QVQLVQSGGEVKKPGASVKVSCKASGYTFTRHGITWVRQAPGQGLEWMGWISADNGNTNYAQKFQDRVTMTTDTSTSTAYMELRSLRSDDTAVYFCARVFRYFDWLLPYFDYWGQGTLVTVST VL: not shown	98.3		96	0.53		
IgG1-1016-058 (antibody, V domains shown, also called IgG1-058; TH1016-058) VH: EVQLVESGGGLVKPGGSLKLSCAASGFTFSDYYMYWVRQTPEKRLEWVATISDDGSYTYYPDSVKGRFTISRDNAKNNLYLQMSSLKSEDTAMYYCAREGLYYYGSGSYYNQDYWGQGTLVTVSS VL: AIQLTQSPSSLSASVGDRVTITCRASQGLSSALAWYRQKPGKAPKLLIYDASSLESGVPSRFSGSGSGTDFTLTISSLQPEDFATYYCQQFTSYPQITFGQGTRLEIK	81.5	0.00727	99	0.15	5200	
IgG1-1016-069 (antibody, V domains shown, also called clone 069; TH1016-069) VH: QVQLVQSGAEVKKPGASVKVSCETSGYTFTSYGISWVRQAPGHGLEWMGWISAYNGYTNYAQKLQGRVTMTTDTSTSTAYMELRSLRSDDTAVYYCARDLRGTNYFDYWGQGTLVTVSS VL: DIQMTQSPSSVSASVGDRVTITCRASQGISNWLAWFQHKPGKAPKLLIYAASSLLSGVPSRFSGSGSGTDFTLTISSLQPEDFATYYCQQANSFPITFGQGTRLEIK	110		97	0.54		
anti-c-Met HuMab 181 (IgG1) (antibody, V domains shown, also called TH1016-181; PC1016-181) VH: QVQLVQSGAEVKKPGASVKVSCKASGYTFTSYGISWVRQAPGQGLEWMGWISTYNGYTNYAQKLQGRVTMTTDTSTSTAYMELRSLRSDDTAVYYCARDLRGTAYFDYWGQGTLVTVSS VL: DIQMTQSPSSVSASVGDRVTITCRASQGISNWLAWYQHKPGKAPKLLIYAASSLLSGVPSRFSGSGSGTDFTLTISSLQPEDFATYYCQQANSFPITFGQGTRLEIK	98.7		93	0.34		
IgG1-024 (antibody, V domains shown, also called TH1016-024; PC1016-024) VH: EVQLLESGGGLVQPGGSLRLSCVASGFTFSSYAMSWVRQAPGKGLEWVSAISGSSGGSTYYVDSVKGRFTISRANSKNTLYLQMNSLRAEDTAVYYCAKDLDRGWMGYFGYWGQGTLVTVSS VL: DIQMTQSPSSVSASVGDRVTITCRASQGISSWLAWYQHKPGKAPKLLIYAASSLQSGVPSRFSGSGSGTDFTLTISSLQPEDFATYYCQQANSFPTFGQGTRLEIK	98.2	0.0168	95	0.39	13100	
